Assay results: patent US20020039776

Biological target: free histones (mixture of H1, H3, H2B, H2A and H4; Boehringer Mannheim)

Protein	HMTase activity
GST-SUV39H1(82-412) (protein) CVRILKQFHKDLERELLRRHHRSKTPRHLDPSLANYLVQKAKQRRALRRWEQELNAKRSHLGRITVENEVDLDGPPRAFVYINEYRVGEGITLNQVAVGCECQDCLWAPTGGCCPGASLHKFAYNDQGQVRLRAGLPIYECNSRCRCGYDCPNRVVQKGIRYDLCIFRTDDGRGWGVRTLEKIRKNSFVMEYVGEIITSEEAERRGQIYDRQGATYLFDLDYVEDVYTVDAAYYGNISHFVNHSCDPNLQVYNVFIDNLDERLPRIAFFATRTIRAGEELTFDYNMQVDPVDMESTRMDSNFGLAGLPGSPKKRVRIECKCGTESCRKYLF	The SU(VAR)3-9 family members assayed, SUV39H1, Suv39h2 and CLR4, displayed HMTase activity.
GST-CLR4(127-490) (protein) KQSTALTTNDTSIILDDSLHTNSKKLGKTRNEVKEESQKRELVSNSIKEATSPKTSSILTKPRNPSKLDSYTHLSFYEKRELFRKKLREIEGPEVTLVNEVDDEPCPSLDFQFISQYRLTQGVIPPDPNFQSGCNCSSLGGCDLNNPSRCECLDDLDEPTHFAYDAQGRVRADTGAVIYECNSFCSCSMECPNRVVQRGRTLPLEIFKTKEKGWGVRSLRFAPAGTFITCYLGEVITSAEAAKRDKNYDDDGITYLFDLDMFDDASEYTVDAQNYGDVSRFFNHSCSPNIAIYSAVRNHGFRTIYDLAFFAIKDIQPLEELTFDYAGAKDFSPVQSQKSQQNRISKLRRQCKCGSANCRGWLFG	The SU(VAR)3-9 family members assayed, SUV39H1, Suv39h2 and CLR4, displayed HMTase activity.
